Measured values from article PMC7242879, “Exploring the Molecular Basis for Substrate Affinity and Structural Stability in Bacterial GH39 β-Xylosidases” (Frontiers in Bioengineering and Biotechnology, 2020).

Tested on: O=[N+]([O-])c1ccc(O[C@@H]2OC[C@@H](O)[C@H](O)[C@H]2O)cc1
Assay: purified protein
Conditions: McIlvaine buffer 50 mM pH 5.5, 40 °C, 0.1–25 mM substrate, 13.6 μM enzyme, 15 min

XacXynB (Xanthomonas citri subsp. citri 306)
Km: 1930 ± 250 µM | kcat: 4.43 ± 0.142 s⁻¹ | kcat/Km: 2300 M⁻¹ s⁻¹
